US7728193B2, “Phytochrome-interacting protein and a use thereof” (Genomine Inc., priority 2004, dated 2010)

Assays:
[1] = molecular target: T1, phytochrome B (Arabidopsis thaliana, UniProt P14713); test: In vitro binding assay (GST pull-down of 35S-labeled TnT protein); details: 1 μg GST-PAPP5 fusion protein, 4° C.
T1 sequence (P14713 1-1172): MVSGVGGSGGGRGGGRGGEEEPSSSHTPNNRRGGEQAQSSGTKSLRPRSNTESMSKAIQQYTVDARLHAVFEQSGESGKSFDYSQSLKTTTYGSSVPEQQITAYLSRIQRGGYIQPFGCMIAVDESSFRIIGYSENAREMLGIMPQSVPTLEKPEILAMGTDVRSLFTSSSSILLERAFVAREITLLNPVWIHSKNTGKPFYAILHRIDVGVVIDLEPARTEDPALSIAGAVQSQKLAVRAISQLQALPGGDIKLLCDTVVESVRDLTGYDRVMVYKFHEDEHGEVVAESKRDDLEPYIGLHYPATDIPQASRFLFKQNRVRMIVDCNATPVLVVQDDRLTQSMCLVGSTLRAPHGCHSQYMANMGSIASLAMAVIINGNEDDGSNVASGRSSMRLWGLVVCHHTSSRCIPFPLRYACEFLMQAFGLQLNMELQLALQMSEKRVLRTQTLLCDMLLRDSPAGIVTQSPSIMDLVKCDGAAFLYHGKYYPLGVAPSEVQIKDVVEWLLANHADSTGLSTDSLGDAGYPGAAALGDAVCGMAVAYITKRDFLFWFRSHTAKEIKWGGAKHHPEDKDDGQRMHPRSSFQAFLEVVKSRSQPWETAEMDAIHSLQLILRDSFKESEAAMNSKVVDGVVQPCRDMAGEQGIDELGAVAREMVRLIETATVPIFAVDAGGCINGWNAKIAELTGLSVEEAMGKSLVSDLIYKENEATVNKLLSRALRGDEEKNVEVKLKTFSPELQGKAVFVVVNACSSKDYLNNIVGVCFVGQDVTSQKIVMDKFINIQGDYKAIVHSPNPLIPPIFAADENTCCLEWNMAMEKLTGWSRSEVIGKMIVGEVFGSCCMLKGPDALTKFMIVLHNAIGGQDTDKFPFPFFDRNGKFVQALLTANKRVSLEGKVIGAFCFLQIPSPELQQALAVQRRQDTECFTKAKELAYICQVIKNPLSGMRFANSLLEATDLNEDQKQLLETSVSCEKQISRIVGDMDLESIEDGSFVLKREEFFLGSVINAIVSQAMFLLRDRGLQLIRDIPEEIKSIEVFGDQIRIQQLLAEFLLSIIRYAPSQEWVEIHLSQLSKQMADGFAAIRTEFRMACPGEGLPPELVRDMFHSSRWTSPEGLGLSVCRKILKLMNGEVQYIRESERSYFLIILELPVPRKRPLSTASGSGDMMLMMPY
T1 sequence (Q84XU2 1-484 isoform Q84XU2-2 partner): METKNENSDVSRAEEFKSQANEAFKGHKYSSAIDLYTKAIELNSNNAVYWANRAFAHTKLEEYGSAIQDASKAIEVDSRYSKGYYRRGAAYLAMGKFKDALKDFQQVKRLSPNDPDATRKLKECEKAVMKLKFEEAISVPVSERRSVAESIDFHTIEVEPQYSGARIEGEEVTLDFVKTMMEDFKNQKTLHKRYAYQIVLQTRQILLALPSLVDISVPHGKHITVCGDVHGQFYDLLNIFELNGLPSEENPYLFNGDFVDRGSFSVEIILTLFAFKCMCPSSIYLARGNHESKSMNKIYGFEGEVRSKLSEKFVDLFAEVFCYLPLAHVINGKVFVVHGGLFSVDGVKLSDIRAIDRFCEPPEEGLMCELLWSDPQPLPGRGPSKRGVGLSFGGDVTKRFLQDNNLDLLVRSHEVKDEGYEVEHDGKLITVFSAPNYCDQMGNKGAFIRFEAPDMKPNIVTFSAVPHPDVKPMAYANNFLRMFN

[2] = molecular target: T2, phytochrome A (Arabidopsis thaliana, UniProt P14712); test: as above; details: 1 μg GST-PAPP5 fusion protein, 4° C.
T2 sequence (P14712 1-1122): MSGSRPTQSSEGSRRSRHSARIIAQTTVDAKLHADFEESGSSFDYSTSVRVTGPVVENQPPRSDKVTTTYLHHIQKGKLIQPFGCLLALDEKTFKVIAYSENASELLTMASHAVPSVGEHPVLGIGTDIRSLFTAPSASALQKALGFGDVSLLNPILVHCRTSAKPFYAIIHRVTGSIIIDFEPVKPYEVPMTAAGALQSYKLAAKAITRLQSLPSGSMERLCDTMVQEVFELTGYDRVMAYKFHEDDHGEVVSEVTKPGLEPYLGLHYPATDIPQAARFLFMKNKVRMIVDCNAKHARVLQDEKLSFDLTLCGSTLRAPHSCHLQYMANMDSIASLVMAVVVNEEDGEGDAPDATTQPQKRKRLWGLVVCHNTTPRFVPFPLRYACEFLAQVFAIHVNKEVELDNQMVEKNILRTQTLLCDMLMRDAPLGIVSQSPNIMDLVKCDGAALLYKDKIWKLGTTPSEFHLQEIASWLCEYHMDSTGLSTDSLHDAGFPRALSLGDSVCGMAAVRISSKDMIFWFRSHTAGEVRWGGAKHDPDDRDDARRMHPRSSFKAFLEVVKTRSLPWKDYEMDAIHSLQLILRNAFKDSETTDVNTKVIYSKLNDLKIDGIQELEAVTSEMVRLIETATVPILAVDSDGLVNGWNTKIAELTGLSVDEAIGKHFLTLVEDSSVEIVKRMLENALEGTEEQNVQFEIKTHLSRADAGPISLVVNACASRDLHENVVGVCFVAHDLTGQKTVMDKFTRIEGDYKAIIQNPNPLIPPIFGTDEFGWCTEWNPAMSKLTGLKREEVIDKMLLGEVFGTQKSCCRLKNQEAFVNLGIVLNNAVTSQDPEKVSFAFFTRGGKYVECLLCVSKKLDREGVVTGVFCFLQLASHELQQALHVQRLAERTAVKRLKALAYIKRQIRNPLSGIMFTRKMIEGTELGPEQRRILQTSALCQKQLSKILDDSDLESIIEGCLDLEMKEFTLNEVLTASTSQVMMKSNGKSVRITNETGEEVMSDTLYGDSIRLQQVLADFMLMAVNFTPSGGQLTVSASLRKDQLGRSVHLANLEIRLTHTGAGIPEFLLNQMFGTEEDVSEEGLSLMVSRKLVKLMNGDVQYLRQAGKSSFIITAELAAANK
T2 sequence (Q84XU2 1-484 isoform Q84XU2-2 partner): T1 sequence (Q84XU2 1-484 isoform Q84XU2-2 partner)

## PAPP5: type 5 serine/threonine protein phosphatase of Arabidopsis thaliana interacting with phytochromes, SEQ ID NO: 4
[1]
  binding to phytochrome B: has the property of binding
[2]
  binding to phytochrome A: has the property of binding
